Source: the nanobody polyreactivity screen of Harvey et al. (2022)

Test: yeast display, Sf9 membrane polyspecificity reagent, FACS + sequencing; frameworks hold sequencing errors
How it was run: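 Nanobodies came from a synthetic yeast display library in Saccharomyces cerevisiae BJ5465, induced with galactose for 36–48 hours and stained for 1 hour at 4 °C with 10% biotinylated, detergent-solubilized Sf9 membrane reagent. Cells were enriched on streptavidin microbeads and then FACS-sorted, with low and high (top ~1%) gates set on anti-HA fluorescence for expression and streptavidin fluorescence for reagent binding. Each polyreactivity label reflects the gate a clone came from. Genes were amplified by colony PCR, sequenced by MiSeq 2 × 250 and filtered by CDR length.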

| Sequence | polyreactivity (PSR sort gate) |
| --- | --- |
| QVQLVESGGGLVQAGGSLRLSCAASGSTFDYNAMGWYRPAPGKERELVAVISSGTRTYYADSVKGRFTISRDNAKNTVYLQMNSLKPEDTAVYFCNKRFYPEHYYWGQGTLVTVSS | high polyreactivity |
| QVQLVESGGGLVQAGGSLRLSCAASGSTFDYNAMGWYRQAPGKEREFVAAISFSGSSTYYADSVKGRFTISRDNAKNTVYLQMNSLKPEDTAVYYCAKKVFASYRGYGYWGQGTQVTVSS | high polyreactivity |
| QVQLVESGGGLVQAGGSLRLSCAASGSTFDYNAMGWYRQAPGKERELVAAITTVGITYYADSVKGRFTISRDNAKNTVYLQMNSLKPEDTAVYYCAARSVRYGGRYDYWGQGTQVTVSS | high polyreactivity |
| QVQLVESGGGLVQAGGSLRLSCAASGSTFDYNAMGWYRQAPGKERELVAGISGGSSTNYADSVKGRFTISRDNAKNTVYLQMNSLKPEDTAVYYCNAQRLPLRYEMDYWGQGTQVTVSS | low polyreactivity |
| QVQLVESGGGLVQAGGSLRLSCAASGSTFDYNTMGWYRQAPGKERELVAAISESGGSTYYADSVKGRFTISRDNAKNTVYLQMNSLKPEDTAVYYCATDDFGGYFGEYDYWGQGTQVTVSS | low polyreactivity |
| QVQLVESGGGLVQAGGSLRLSCAASGSTFDYYAMGWYRQAPGKEREFVASINWNGARTYYADSVKGRFTISRDNAKNTVYLQMNSLKPEDTAVYYCAAYTKRYLYNYWGQGTQVTVSS | high polyreactivity |
| QVQLVESGGGLVQAGGSLRLSCAASGSTFDYYAMGWYRQAPGKERELVAAISSGGSTNYADSVKGRFTISRDNAKNTVYLQMNSLKPEDTAVYYCAKDHAYTSAPHQYASEYYYWGQGTQVTVSS | low polyreactivity |
| QVQLVESGGGLVQAGGSLRLSCAASGSTFDYYAMGWYRQAPGKERELVAAISWSGGSTYYADSVKGRFTISRDNEKNTVYLQMNSLKPEDTAVYYCAALYSYISGGYIYDYWGQGTQVTVSS | low polyreactivity |
| QVQLVESGGGLVQAGGSLRLSCAASGSTFDYYAMGWYRQAPGKERELVAAITSTGRTYYADSVKGRFTISRDNAKNTVYLQMNSLKPEDTAVYYCAADLPWGPLFDYWGQGTQVTVSS | low polyreactivity |
| QVQLVESGGGLVQAGGSLRLSCAASGSTFDYYTMGWYRQAPGKERELVAAISSSGGSTYYADSVTGRFTISRDNAKNTVYLQMNSLKPEDTAVYDCAARGYHYSYLRGDTGYYYWGQGTQVTVSS | low polyreactivity |
| QVQLVESGGGLVQAGGSLRLSCAASGSTFEDNAMGWYRQAPGKERELVAVITWTGGSTYYADSVKGRFTISRDNAKNTVYLQMNSLKPEDTAGYYCAADGVVPGRFFWPAHAYDYCGQGTQVTVSS | low polyreactivity |
| QVQLVESGGGLVQAGGSLRLSCAASGSTFEFYAMGWYRQAPGKERELVASITSSSGPTYYADSVKGRFTISRDNAKNTVYLQMNSLKPEDTAVYYCAKRPIRYYHLLRGNYWGQGTQVTVSS | low polyreactivity |
| QVQLVESGGGLVQAGGSLRLSCAASGSTFEGNAMGWYRQAPGKERELVAAINSVAITNYADSVKGRFTISRDNAKNTVYLQMNSLKPEDTAVYYCNAQTNRPWGWPIGYDYWGQGTQVTVSS | low polyreactivity |
| QVQLVESGGGLVQAGGSLRLSCAASGSTFEGNDMGWYRQAPGKERELVASITSDTSTYADSVKGRFTISRDNAKNTVYLQMNSLKPEDTAVYYCNTGSYAETYYWITDPYDYWGQGTQVNVSS | low polyreactivity |
| QVQLVESGGGLVQAGGSLRLSCAASGSTFEIYAMGWYRQAPGKERELVAAITRSGRTNYADSVKGRFTISRDNAKNTVYLQMNSLKPEDTAVYYCAAGVWGRDRKYGYWGQGTQVTVSS | high polyreactivity |
| QVQLVESGGGLVQAGGSLRLSCAASGSTFELYAMGLYRQAPGKERELVASITGDSTNYADSVKGRFTISRDNAKNTVYLQMNSLKPEDTAVYYCAAEYVPYYEYESWGQGTQVTVSS | low polyreactivity |
